Our source for the Kd values is publication PMC5397175.

Data set [1] has as its target T1, SLM2 (T-STAR) STAR domain (UniProt O75525).
T1 sequence: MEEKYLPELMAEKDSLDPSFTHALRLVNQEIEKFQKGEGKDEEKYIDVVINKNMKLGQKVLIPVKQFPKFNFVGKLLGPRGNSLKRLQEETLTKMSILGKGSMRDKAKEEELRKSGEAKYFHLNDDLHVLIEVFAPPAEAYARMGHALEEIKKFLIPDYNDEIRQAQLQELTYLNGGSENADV
Kind of data set: fluorescence polarization. Particulars: FP buffer, salt, pH and temperature not given in the material; SD from three independent experiments. In general terms: Polarisation of emitted light reports the rotation of a fluorescent probe.

A further data set addresses Sam68 STAR domain (UniProt Q07666). Kind of data set: fluorescence polarization. Particulars: FP buffer, salt, pH and temperature not given in the material; SD from three independent experiments.

Chain of Sam68 STAR domain (Q07666 97-283): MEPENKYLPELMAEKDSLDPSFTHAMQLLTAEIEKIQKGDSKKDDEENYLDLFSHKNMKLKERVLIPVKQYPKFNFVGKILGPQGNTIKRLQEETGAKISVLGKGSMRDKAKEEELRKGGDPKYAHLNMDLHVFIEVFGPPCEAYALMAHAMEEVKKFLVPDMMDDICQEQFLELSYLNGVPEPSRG

As to CCCACAGUUUAAAAUUUGAUAAAAUUU [Stxbp5l 1], the figures for the dissociation constant (Kd) (in data set [1]; with Sam68 STAR domain) were 24 µM and 15.5 µM, respectively.

Consider “CCCUUACAUUUAAAAGAUGAUUUAAAAA [Stxbp5l 2]”, for which the Kd in data set [1] was 18.2 µM; with Sam68 STAR domain it was 13.8 µM.

By Kd is commonly meant the equilibrium constant for the complex coming apart.
